In a protein production outcome set (Wang et al. 2014):

Test: label from the status in PepcDB records
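Further: failed if final PepcDB status was selected cloned or expressed and not failed if soluble or beyond.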

Row | Sequence | protein production
1 | MAPQSHGRSRINSIDMMRGLVMLIMLLDHVREQFFLHMQVSDPMDLSTTTWDLFVSRFAAHFCAPVFVFLTGVSAWLYANRGHGEPRSVRVFLLKRGLFLIALEVLVINFSWMGNYHTLWLQVIWVIGLSMLALAALIKLPRLWMALLGLLIVFGHNLLSPIHFEPDTWGYSLWTILHDRGYLIAEGDLKLKVSYPLLPWIGVILLGYVAGPLFSRKFEAWQRQQRLMLLGVGCFAFFCLLRGFNLYGETLPWQVGESIGQTLMSVFNLTKYPPSLSFLLVTLGGMFCGLVLFERYFAAGSLFSWIGQKLAVFGSVPMFFYILHLYVLLLLYLVAKGLFGANHGELFGVAHMGWVWLISLVLIPLLYYPVSWFSRYKSQSQQAWLKYL | failed
2 | MAPSSSTFKQVADDWLKQYANDVKVSSVRAREKAIQHAIERFNTKPIQTIKKHDYQRFVDDISAQYSKNYVDSIVASTNMIFKYAYDTRLIKAMPSEGIKRPKKKLEHHHHHH | not failed
3 | MAPTFSPNPQNFTKKDKTKAERRKPEEGDDDHHHNASQLFLNPWQTRAARCRSLANGMLMTLHQLRGLLLSSTKLETRRKEVENLTHQGKMNLDIIKMGKFLRNPPKNGFAVYAQNKWRGVCLGRSFIYI | failed
4 | MAQAPDSSVPVRMVVDLTVDDYAAFTAYAYQRPALRRRRHASHLRFAVLLAAGLLAVILLRVWDGRQLDWGAALPAYAQALVVGLAVFALLAVGYEYALPRLARGNVRRALGRQPDNPFLGRHTLDFGPRGVDDAAAGASGTMPWEAVGQVEETASHLYLFISPLQGVIIPKRGQSADVLQAVRAQLRAHVPGAALADAADKQ | failed
5 | MAQGFKITYTDQACLLDIQDPQNKESQSFHYALVPRGVEAENIPADYTVIETPIRSVICMTSLQLSNFIKLEELDAVVGITSTRHLFNKKINDRLKDGSIHKIGIEGNFDNEVIMSVNPDLILISPFKRGGYDALKEVGIPLMPHLGYKEMTPLGQAEWIKFVGLLLGREDKANKQFAAIKKRYNELKELTGLEHHHHHH | failed
6 | MAQHHGHLGAVYDAAGPQEVAALYDRWAETYESEMARAGYRHPAIGVALLARHLPRGARPLLDAGAGTGLLGEWLEIVGYPEVEALDISAGMLEVARAKGIYARCHNLPLGAALPFRDGAFAGIISTGVFTTGHVGAEALPELLRICRPGGVIVLTVKESLWQGGFAVSLEAAVASGLEHHHHHH | failed
7 | MAQKDRNTRIAQKAFEMVDKVYGKSPNLTTKPYDPKDESPSRFTQSAYKYGGPKIYTVREATSTYSYGRAIYMYAPESTIKEPVVSHPTEHIQYYGGTRPFVANPNRFERPKGRVINCDEAVQLYGGVLIKEFRK | failed
8 | MAQKILVEQVVKRKAIVVQPKDTVDRVAKILSRNKAGSAVVMEGDEILGVVTERDILDKVVAKGKNPKEVKVEEIMTKNPVKIEYDYDIEDVIELMTEKGVRRVLVTKFGKPIGFVTAADILAALASHNHEEEEEEREEESEVYGICEVCGQYGALYKVYHEGRELWVCETCKDLIEGR | not failed
9 | MAQKKGFKYRFYPTDKQKAVLAKVFGHTRYVWNWALELRTDAYYEEGESLSYTDTAKRLTDLKKEKTWLREVSSVALQQKLRDLDQAFQNFFDGRCGYPNFKSKHDKQAARFASNAFTLHGKKLSVAKVPGSLNVRWSRDLPDEAKPTSVTLTKDPAGRYFVSITSAVPEPDPEPTVTDGDGNQKSVGIDLGIADIVVTSDGWKSGNPRHLENDLYRLRKAQRRLSRKEKNGSDGPSENWKKQKRRVAKIHAEIKDKREDFLHKLSRRVVDENQVIALESLSVKGMQQNRSLARPISDTGWSTLVRMIEYKAKEAGRTVVKIDRWFPSTKRCSECGYVTESKPLSVRSWDCPRCDTTHDRDINAAKNIRTAGLAGAFQKANDSGGHSKTRDAFRIERFGANAHGPVNE | failed
10 | MAQKLYPPIHPGEILMEDFIKGFGLTQNKVAVSIGVPPRRINEIVHGKRSITADTALRLGRYFGIDPQFWLSLQTQYELELDRDAGAATYAQITPLKVA | failed
11 | MAQLTPLDISFIAGYLLLTLLVGLFFSRRASENVGEFFLSGRKLPWWIAGTGMVATTFAADTPLAVAGFVAKNGIAGNWVWWTFVSGGMLTVFFFARLWRRANILTDLEFIELRYSGKAASFLRGFKAVYFGLFINAVIIGWVNLAMFKIIKIMIPGLDPQLTIVGLVIFTAIYSGMSGLWGVSITDAVQFVIAMAGCIILAVLAVNSPQVTAAGGLKQALPDWMFDFFPSFSSTVNTSATGAYALPFTAFAAMAFVQWWASWYPGAEPGGGGYIAQRMMSAKDEKNSLLATLWFTIAHYCVRPWPWIVVGLASLVMFPNLPAGQKEDGFVHVMNAVLPAGLKGLLIAAFMAAYMSTLSTHLNWGTSYLINDLYKRFIKREAEQNHYVLMSRIVTAVTAIFALYITFYVLETITGAWEFIIQCGAGTGFVLIMRWFWWRLNAWSEITSMVAPIVAYSYINQFTTIVFPESIYIIVLFTITCTLAVTWLTKPTDREKLHAFYRTTRVGGALWKPVADEMPDVKGDTGFPALFADWFFGIVLVYATLFGTGKLIFGEPVAAALYYAAGALAGVMIYRDLSKRNWKTFD | failed
12 | MAQNEGVSFSECVAAAKLIRSSNGPGWRQAWEELARSHVQRAEEARRTGNEPEAQKSWLHAANYFMAAAIESCPEGAEPALGALARSCLHNYLAHLTPQGETVAIPWLEPRSLEGFYLPVGTYSAETGPVVVCIAETRRTKEEILSLVLRSARKRGMTLLCVDLPDEPPSSRAGPETGIPAILDYLIDGRGIDAKRIAVISDGSPSSLVTRGIALDGRIAAAVCDGGLWDLWVARQTEACGAALGMVQGCARRPAVSCPMLVPLLASEGIEPGHARQLLTEHHPGNRDILLKVFGETSSGPWTLNGYDPILVADFVFDWVGQQLKAATGDADCIRRLESRL | failed
13 | MAQNKNLNLELSLSQYVEDDPWVLKKKLSDSDLYYSAQLYLPKQEMEHFVLPEMDHDLVRKLGAGVEVKVRDVDSVDDFYTVRLKVRNGQYYLGKGWGLIKNAKVLNTGDHIGLFWDKLTREVKFKHFKSQSITMHREAGTTSTQKNVLQKK | failed
14 | MAQPERFGRYRVLRRLGSGSFATVWLGHDDLLDTPVAIKVLAENWAHNLDIHQRFVEEARILRQADSEWLVRVHDIGTLPDDRPYFVMTYADRGSVADRIAQGPLPLDEALRLLTEIGQGVTVLHRHGTIHRDIKPSNVLLQSSPVGERVLVADLGFAKSIDGASGFTASAGTPGYMSPEQSVVGGDIDVRADVYSLGAVAYELVTGKRPPSPPVRVPPSRLRPGVPPALDELIMSALSPNRSDRPPDAATFTSRIREIRMSPDLELATPWWQRYRATWTRLVALVATAVAVLGVAPAASASPHLPMMEIYDASGELHVRVPTPWLRQMQLNGWSPRELGLPGGHEPGLLVATDLDAWSDARQSVSGLFAGLFVSDGQSPDLDRLISSGLCSGQPQRQRFTNAHWDGELWQWVDCSPDSSEGDVFTAAVLQHRGQERTLYLEIRQTEHQPQTVAEILDGLRLIS | failed
15 | MAQTQLPHDAKAGPTKPEVRAVVRSKLALTDDDHFVEVGSCTGAVTIAAARDAGRVTALERKADRLETTRKNLAANGLADAVELRNAEAPAELPADADALFIGGSRNYDAVLDHAAETGVDRIVMNVSRLEVAGAATQAFRDRDILTEVVQFQVSHGYELAGATSFDSENPVYMLVGSASGDTEADR | failed
16 | MAQTQTFRRTCFLLAIFILISVSGIGTASEFRVWPGQSIQDAVDSASPGDIILVESGEFNESIRVNKENLTIESASGNPDDIFIAGDTPISYVFEVVANDVKINFFSITDGRCGIFLNNVENCVINGNKISNQEAGIYLLNSRNNLLTNNMVYSNEDCGLKLLASSENIIYGNYFDNVENARDNRFNVWNNSKGNYWSDYGGTDENGDGIGDTPYAINPEVGSMDYRPLIEYSQEAPILPKALFTSDVTEGYAPLVVRFKDFSEDAASRLWDFGDGNFSSYPNPQHTYLNEGTYVVSLTVSNENGSDSASVTVYVRDASELAGPMLPKAQFIYNTTSGHIPLVIKFVDISENADCVTWYFGDGKTSCCPEPEHTFCCPGSYTVSLAAINENGTSSASIVVNVLPAESVESSEDTENSANTGSGSDKNNACNIVNETDADASEKAGDPELITRSENTDSLGNSIIEYASDTTDKFADAENSINAEATENSESDSNGGGEGTGTARIIHREELEAIKDSVISTASSNILKETERALENETLKVQKNVEDFVDDSLPESVGDSLPEMEQRIAPWIPSFLGLAGVIFIVSVMKRGRRRRQK | failed
17 | MAQVFNFSSGPAMLPAEVLKLAQQELCDWHGLGTSVMEISHRGKEFIQVAEEAEQDFRDLLNIPSNYKVLFCHGGGRGQFAGVPLNLLGDKTTADYVDAGYWAASAIKEAKKYCAPQIIDAKITVDGKRAVKPMREWQLSDNAAYLHYCPNETIDGIAIDETPDFGPEVVVTADFSSTILSAPLDVSRYGVIYAGAQKNIGPAGLTLVIVREDLLGKAHESCPSILDYTVLNDNDSMFNTPPTFAWYLSGLVFKWLKAQGGVAAMHKINQQKAELLYGVIDNSDFYRNDVAQANRSRMNVPFQLADNTLDKVFLEESFAAGLHALKGHRVVGGMRASIYNAMPIEGVKALTDFMIDFERRHG | not failed
18 | MARAKNVLWIMCDQLRYDYLGCTGHPTLKTPNIDAMAKRGVLFSKAYVQSPICGPSRMSFYTGRYMRSHGSHWNGWPLRVGEPTLGDHLKKIGVRNVLVGKTHMAPDLEGMKALGIPPESMIGVHVAECGFEPYERDDGLHPTGRPRPKYDEYLRKQGFEATNPWEHWANSGAAEDGSLQNGWLLVHADKAARVPEEHSETPYMTRRAMDFISEAETDGKPWCLHLSYIKPHWPYIAPEPYASMYSTDDMIPVIRSERERQNPHPVFGAYMDMRYSRNMARDDAREKVIPTYMGLITQIDDQMGALMKFLEERGLLDTTMIVFTSDHGDYLGDHWMGEKDLFHEQSAKIPLIIIDPSREADATRGTRSDALVEGIDLAPTFVDYFGGKVPGHILEGRSLLPLLRGPTPPDWRKVAFSEYDYAMQDVRLKLNQPIERCRLFMVFDGRWKYIHASGFRPMLYDLETDPEEFLDRGDDPDCAGIIARLQAELFDWALHPNDHITTPREKIAAYADNQLQVKGGVLIGIWDEAELAAIKDGIAQRAKL | failed
19 | MARDGGVSCLRRSEMMSVGGIGGIESAPLDLDEVHVLAVDDSLVDRIVIERLLRITSCKVTAVDSGWRALEFLGLDNEKASAEFDRLKVDLIITDYCMPGMTGYELLKKIKESSNFREVPVVIMSSENVLTRIDRCLEEGAQDFLLKPVKLADVKRLRSHLTKDVKLSNGNKRKLPEDSSSVNSSLPPPSPPLTISPESSPPLTVSTESSDSSPPLSPVEIFSTSPLSSPIDDEDDDVLTSSSEESPIRRQKMRSPGLD | failed
20 | MARGLNRVFLIGALATRPDMRYTPAGLAILDLTLAGQDLLLSDNGGEREVSWYHRVRLLGRQAEMWGDLLDQGQLVFVEGRLEYRQWEREGERRSELQIRADFLDPLDDRGKERAEDSRGQPRLRAALNQVFLMGNLTRDPELRYTPQGTAVARLGLAVNERRQGAEERTHFVEVQAWRDLAEWAAELRKGDGLFVIGRLVNDSWTSSSGERRFQTRVEALRLERPTRGPAQAGGSRSREVQTGGVDIDEGLEDFPPEEELPF | not failed
